# Reference: patent publication US7091002B2, “Carboxypeptidases and nucleic acids encoding same” (Novozymes, Inc., priority 1996, dated 2006)
# Several values for one entry are separate records, joined by “and”; a condition that tells them apart may be missing. Identical values can stand only once. Residues, ends and D or L forms follow the SMILES beside them. *: point of attachment. Cbz = O=C(OCc1ccccc1)*
# B1: Aspergillus oryzae ATCC 20386 carboxypeptidase I (Aspergillus oryzae RIB40) (protein)
# chain: LPGSTPASVGRRQLPKNPTGVKTLTTANNVTIRYKEPGAEGVCETTPGVKSYSGYVDTSPESHTFFWFFEARHNPETAPITLWLNGGPGSDSLIGLFEELGPCHVNSTFDDYINPHSWNEVSNLLFLSQPLGVGFSYSDTVDGSINPVTGVVENSSFAGVQGRYPTIDATLIDTTNLAAEAAWEILQGFLSGLPSLDSRVQSKDFSLWTESYGGHYGPAFFNHFYEQNERIANGSVNGVQLNFNSLGIINGIIDEAIQAPYYPEFAVNNTYGIKAVNETVYNYMKFANQMPNGCQDLISTCKQTNRTALADYALCAEATNMCRDNVEGPYYAFAGRGVYDIRHPYDDPTPPSYYNKFLAKDSVMDAIGVNINYTQSNNDVYYAFQQTGDFVWPNFIEDLEEILALPVRVSLIYGDADYICNWFGGQAVSLAANYSQAAQFRSAGYTPLKVNGVEYGETREYGNFSFTRVYEAGHEVPYYQPIASLQLFNRTIFGWDIAEGQKKIWPSYKTNGTATATHTQSSVPLPTATSMSSVGMA
# B2: carboxypeptidase: carboxypeptidase purified from FLAVOURZYME broth, approximately 68 kDa serine carboxypeptidase, amino acid sequence SEQ ID NO: 2 (protein, listed as Aspergillus oryzae)
# chain: MRGYEFLSVLPLVAASWALPGSTPASVGRRQLPKNPTGVKTLTTANNVTIRYKEPGAEGVCETTPGVKSYSGYVDTSPESHTFFWFFEARHNPETAPITLWLNGGPGSDSLIGLFEELGPCHVNSTFDDYINPHSWNEVSNLLFLSQPLGVGFSYSDTVDGSINPVTGVVENSSFAGVQGRYPTIDATLIDTTNLAAEAAWEILQGFLSGLPSLDSRVQSKDFSLWTESYGGHYGPAFFNHFYEQNERIANGSVNGVQLNFNSLGIINGIIDEAIQAPYYPEFAVNNTYGIKAVNETVYNYMKFANQMPNGCQDLISTCKQTNRTALADYALCAEATNMCRDNVEGPYYAFAGRGVYDIRHPYDDPTPPSYYNKFLAKDSVMDAIGVNINYTQSNNDVYYAFQQTGDFVWPNFIEDLEEILALPVRVSLIYGDADYICNWFGGQAVSLAANYSQAAQFRSAGYTPLKVNGVEYGETREYGNFSFTRVYEAGHEVPYYQPIASLQLFNRTIFGWDIAEGQKKIWPSYKTNGTATATHTQSSVPLPTATSMSSVGMA
# Experiments:
# Type in all cases: biochemical
# [1] = biological target: T1, Aspergillus oryzae ATCC 20386 carboxypeptidase I (Aspergillus oryzae, UniProt Q2TZ11); test: Substrate specificity of the carboxypeptidase (hydrolysis of N-CBZ-Ala-X / N-CBZ-Glu-X); settings: 2 mM substrate, 2 hour incubation, 4.9×10^−7 M carboxypeptidase
# T1 sequence (Q2TZ11 19-555): B1 chain
# Description: (§1) The substrate specificity of the carboxypeptidase was determined by measuring the hydrolysis of a substrate listed in Table 1 at pH 4.0 in 50 mM acetate buffer. o-Phthaldialdehyde together with dithiothreitol were used to monitor the liberation of free IIe, Glu, Lys, Arg, Asp, Asn, Gly, Phe, amd Tyr under enzymatic hydrolysis according to the procedure of Roth, M., 1971, Analytical Chemistry 43: 880. The kcat value for the hydrolysis of N-CBZ-Ala-X or N-CBZ-Glu-X was determined based on the assumption that molecular weight of the carboxypeptidase was 68 kD and that the enzyme preparation was homogeneous.
# [2] = biological target: T1, Aspergillus oryzae ATCC 20386 carboxypeptidase I; test: Inhibition of the carboxypeptidase with 1,10-phenanthroline and phenylmethylsulfonyl fluoride; settings: furylacryloyl-Ala-Lys as substrate, pH 7.0, 20 mM phosphate buffer, hydrolysis monitored at 340 nm
# Description: Inhibition of the carboxypeptidase with 1,10-phenanthroline and phenylmethylsulfonyl fluoride was evaluated using furylacryloyl-Ala-Lys as substrate at pH 7.0 in 20 mM phosphate buffer where hydrolysis was monitored at 340 nm.
# [3] = test system: Aspergillus oryzae ATCC 20386 carboxypeptidase I; test: Substrate specificity of the carboxypeptidase (hydrolysis of N-CBZ-Ala-X / N-CBZ-Glu-X); settings: compared with literature values
# Description: as §1
# [4] = substrate: C[C@H](NC(=O)/C=C/c1ccco1)C(=O)N[C@@H](CCCCN)C(=O)O; test: Km of the carboxypeptidase toward furylacryloyl-Ala-Lys; settings: other: pH 4.0, 25° C.
# Wheat Gluten = test: Protein hydrolysis, degree of hydrolysis (DH), wheat gluten; settings: Wheat Gluten 2% (w/v), pH 7.0, 18 hours at 50° C.; FLAVOURZYME 3 LAPU, carboxypeptidase 11.5 CPDU
# Description: (§2) Commercial grade soy meal, wheat gluten, casein and gelatin were used as protein substrates. The soy meal was prepared from defatted toasted soy grits 20/80/20 (Cargill BV, NL); vital wheat gluten was obtained from Crespel and Dieters, Denmark; casein was obtained as Na-Caseinate Miprodan (MD Foods, Denmark); and gelatin was obtained as Bonegelatin (DGF Stores, Denmark).
# (§3) The substrates were prepared as a 2% (w/v) aqueous solution, in which the protein concentration was determined by the method of Kjeldahl. Two hundred mg of each substrate, obtained in the form of a dry composition, was dissolved in 9 ml of tap water and the pH was adjusted to 7.0. […]
# (§4) The hydrolysates were cooled and the degree of hydrolysis (DH) was assayed in microtiter plates using OPA (ortho-phtaldialdehyde, Sigma Chemical Co., St. Louis, Mo.) as the detecting reagent. The DH, defined as described in by Adler-Nissen (1986, Enzymic Hydrolysis of Food Proteins, Elsevier Applied Science Publishers), was determined by reaction of the supernatant with OPA (ortho-phtaldialdehyde, Sigma Chemical Co., St. Louis, Mo.). […]
# (§5) A volume of 25 μl of suitably diluted supernatant was mixed with 200 μl of OPA reagent in a microtiter plate well and allowed to react for exactly 2 minutes at 25° C. […] The degree of hydrolysis was calculated on basis of the total amount of protein in the hydrolysis mixture (not on basis of soluble protein).
# Soy Meal = test: Protein hydrolysis, degree of hydrolysis (DH), soy meal; settings: Soy Meal 2% (w/v), pH 7.0, 18 hours at 50° C.; FLAVOURZYME 3 LAPU, carboxypeptidase 11.5 CPDU
# Description: as §2, §3, §4, §5
# [5] = test system: soy meal, wheat gluten, casein and gelatin; test: Protein hydrolysis, DH, summary for all substrates
# Description: as §2, §3, §4, §5
# [6] = Specific activity of the carboxypeptidase (CPDU assay); settings: 0.5 mM N-CBZ-Ala-Glu, pH 4.5, 25° C.
# Description: The activity of the carboxypeptidase was determined by measuring the rate of specific hydrolysis of N-CBZ-Ala-Glu. One carboxypeptidase unit (CPDU) is the amount of carboxypeptidase which liberates 1 micromole of glutamate per minute from a 0.5 mM N-CBZ-Ala-Glu solution at pH 4.5 and 25° C. A reagent containing o-phthaldialdehyde in combination with dithiothreitol was used to monitor the liberation of free glutamate under enzymatic hydrolysis according to the procedure of Roth, 1971, supra. The o-phthaldialdehyde reagent was a solution of o-phthaldialdehyde (6 mM) and dithiothreitol (6.5 mM) in 0.1 M sodium tetraborate. Briefly, 0.05 ml of the enzyme solution in 20 mM acetate buffer, pH 4.5 was incubated with 1 ml of substrate. At regular time intervals, a 0.3 ml aliquot was withdrawn, mixed with 0.9 ml of the o-phthaldialdehyde reagent, and the absorption at A340, using a path length of 1 cm, of the resultant product was measured. Where the dependence of A340 on the incubation time was linear, the specific activity of the enzyme was calculated using the equation: specific activity=slope (optical density per min)×11.35. By this procedure, the specific activity of the purified carboxypeptidase was determined to be 11 CPDU per mg protein which is equivalent to 11 micromoles glutamate per minute per mg protein.
# Gelatin = test: Protein hydrolysis, degree of hydrolysis (DH), gelatin; settings: Gelatin 2% (w/v), pH 7.0, 18 hours at 50° C.; FLAVOURZYME 3 LAPU, carboxypeptidase 11.5 CPDU
# Description: as §2, §3, §4, §5
# [7] = Thermostability of the carboxypeptidase (residual activity); settings: 10 minute incubation, 50 mM acetate buffer
# Casein = test: Protein hydrolysis, degree of hydrolysis (DH), casein; settings: Casein 2% (w/v), pH 7.0, 18 hours at 50° C.; FLAVOURZYME 3 LAPU, carboxypeptidase 11.5 CPDU
# Description: as §2, §3, §4, §5
molecule,measurement,setting,value
C[C@H](NC(=O)OCc1ccccc1)C(=O)N1CCC[C@H]1C(=O)O [N-CBZ-Ala-Pro] (Cbz-Ala-Pro-OH),fraction of substrate solution hydrolyzed,[1],16%
O=S(=O)(F)Cc1ccccc1 [phenylmethylsulfonyl fluoride],Inhibition of carboxypeptidase activity,[2],inhibits carboxypeptidase activity completely
C[C@H](NC(=O)OCc1ccccc1)C(=O)N[C@@H](Cc1ccccc1)C(=O)O [N-CBZ-Ala-Phe],kcat relative to acid carboxypeptidases O-1 and O-2 from Aspergillus oryzae,[3],at least 8.5 fold
"c1cnc2c(c1)ccc1cccnc12 [1,10-phenanthroline]",Inhibition of carboxypeptidase activity,[2],does not inhibit
B1,Km,[4],400 µM
B2,DH,Wheat Gluten,0
same,DH,Soy Meal,0
same,"effect on DH, enzyme alone",[5],no effect
same,effect on the DH obtained by FLAVOURZYME when added with FLAVOURZYME,[5],enhanced
same,specific activity,[6],11 CPDU per mg protein and 11 micromoles glutamate per minute per mg protein
same,DH,Gelatin,0
same,residual activity,"[7]; pH 4.0, 55° C.",74%
same,residual activity,"[7]; pH 4.0, 60° C.",65%
same,DH,Casein,0
